Assay [1] has as its target syndecan-4 (SD-4) on mouse T cells (mouse) (UniProt O35988). Briefly: cell-based or functional assay.
For another assay, the target named is T1, Human DC-HIL (human, UniProt Q14956 23-572).
T1 sequence (looked up): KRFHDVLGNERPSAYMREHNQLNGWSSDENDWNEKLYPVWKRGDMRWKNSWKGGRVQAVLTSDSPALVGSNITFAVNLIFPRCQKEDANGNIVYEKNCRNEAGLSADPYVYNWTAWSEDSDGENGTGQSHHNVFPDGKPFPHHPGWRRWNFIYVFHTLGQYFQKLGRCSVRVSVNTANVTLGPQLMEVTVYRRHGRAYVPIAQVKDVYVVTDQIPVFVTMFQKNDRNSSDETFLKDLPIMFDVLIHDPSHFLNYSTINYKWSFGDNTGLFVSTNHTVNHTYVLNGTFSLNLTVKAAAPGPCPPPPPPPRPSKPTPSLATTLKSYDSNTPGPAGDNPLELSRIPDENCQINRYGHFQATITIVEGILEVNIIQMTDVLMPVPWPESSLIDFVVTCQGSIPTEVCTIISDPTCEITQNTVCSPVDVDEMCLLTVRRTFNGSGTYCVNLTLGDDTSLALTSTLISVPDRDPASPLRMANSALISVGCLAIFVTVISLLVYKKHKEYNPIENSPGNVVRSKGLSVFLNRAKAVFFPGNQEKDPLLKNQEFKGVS
Description: cell-based or functional assay.

Where only a bound is given, the exact number is not on record here.

syndecan-4 (SD-4) on mouse T cells (mouse), sequence (O35988 24-198): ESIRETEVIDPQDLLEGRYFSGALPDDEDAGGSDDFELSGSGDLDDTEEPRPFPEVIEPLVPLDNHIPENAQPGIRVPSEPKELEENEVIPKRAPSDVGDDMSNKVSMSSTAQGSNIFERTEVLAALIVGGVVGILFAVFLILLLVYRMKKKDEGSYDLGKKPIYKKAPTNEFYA

With “DC-HIL-Fc fusion protein (from UniProt Q99P91 23-502)”, in assay [1], the restoration of pmel-1 T cell activation suppressed by melanoma-MDSC is less than 90%.

B1: 3D5 mouse anti-human DC-HIL mAb (antibody, IgG1, V domains shown)
VH: QVQLQQSGAELVKPGTSVKLSCKASGYTFTNYYMYWVKQRPGQGLEWIGEINTRNGGNRFNEKFKNKAILTVDKSSNTAYIQVSSLTSEDSAVYYCTTGFAYWGQGTLVTVSA
VL: QIVLTQSPAIMSASLGEEITLTCSASSSISYMHWYQQKSGTSPKLLIYTTSTLSSGVPSRFSGSGSGTFYSLTISSVEAEDAADYYCHQSSSYPYTFGGGTKLEIKR
Take B1: in the assay with Human DC-HIL, the “T cell IFN-γ response against control IgG-treated cultures, kidney cancer” value was 20 fold greater than control IgG-treated cultures.

(Values after US20180064809A1 (University of Texas, published 2018).)
